Results taken from US20230192890A1.
Values belong to the binder of their own block, whether it stands above or below them.

Tests used:
[1] = biological target: T1, Ala mutant SEQ ID NO: 27 (human); assay: ELISA, peptide on plate (10 ug/mL)
T1 sequence (peptide): AENMDDQWMQDEMEIGY

[2] = biological target: T2, Ala mutant SEQ ID NO: 28 (human); assay: ELISA, peptide on plate (10 ug/mL)
T2 sequence (peptide): EANMDDQWMQDEMEIGY

[3] = biological target: T3, Ala mutant SEQ ID NO: 29 (human); assay: ELISA, peptide on plate (10 ug/mL)
T3 sequence (peptide): EEAMDDQWMQDEMEIGY

[4] = biological target: T4, Ala mutant SEQ ID NO: 30 (human); assay: ELISA, peptide on plate (10 ug/mL)
T4 sequence (peptide): EENADDQWMQDEMEIGY

[5] = biological target: T5, Ala mutant SEQ ID NO: 31 (human); assay: ELISA, peptide on plate (10 ug/mL)
T5 sequence (peptide): EENMADQWMQDEMEIGY

[6] = biological target: T6, Ala mutant SEQ ID NO: 33 (human); assay: ELISA, peptide on plate (10 ug/mL)
T6 sequence (peptide): EENMDDAWMQDEMEIGY

[7] = biological target: T7, Ala mutant SEQ ID NO: 36 (human); assay: ELISA, peptide on plate (10 ug/mL)
T7 sequence (peptide): EENMDDQWMADEMEIGY

[8] = biological target: T8, Ala mutant SEQ ID NO: 37 (human); assay: ELISA, peptide on plate (10 ug/mL)
T8 sequence (peptide): EENMDDQWMQAEMEIGY

[9] = biological target: T9, Ala mutant SEQ ID NO: 38 (human); assay: ELISA, peptide on plate (10 ug/mL)
T9 sequence (peptide): EENMDDQWMQDAMEIGY

[10] = biological target: T10, Ala mutant SEQ ID NO: 39 (human); assay: ELISA, peptide on plate (10 ug/mL)
T10 sequence (peptide): EENMDDQWMQDEAEIGY

[11] = biological target: T11, Ala mutant SEQ ID NO: 40 (human); assay: ELISA, peptide on plate (10 ug/mL)
T11 sequence (peptide): EENMDDQWMQDEMAIGY

[12] = biological target: T12, Ala mutant SEQ ID NO: 41 (human); assay: ELISA, peptide on plate (10 ug/mL)
T12 sequence (peptide): EENMDDQWMQDEMEAGY

[13] = biological target: T13, Ala mutant SEQ ID NO: 42 (human); assay: ELISA, peptide on plate (10 ug/mL)
T13 sequence (peptide): EENMDDQWMQDEMEIAY

[14] = biological target: T14, Ala mutant SEQ ID NO: 43 (human); assay: ELISA, peptide on plate (10 ug/mL)
T14 sequence (peptide): EENMDDQWMQDEMEIGA

[15] = biological target: T15, Ala mutant having 3-amino acid substitution, SEQ ID NO: 44 (human); assay: ELISA, peptide on plate (10 ug/mL)
T15 sequence (peptide): AAAMDDQWMQDEMEIGY

[16] = biological target: T16, Ala mutant having 3-amino acid substitution, SEQ ID NO: 46 (human); assay: ELISA, peptide on plate (10 ug/mL)
T16 sequence (peptide): EENMDDAAAQDEMEIGY

[17] = biological target: T17, Ala mutant having 3-amino acid substitution, SEQ ID NO: 47 (human); assay: ELISA, peptide on plate (10 ug/mL)
T17 sequence (peptide): EENMDDQWMAAAMEIGY

[18] = biological target: T18, Ala mutant having 3-amino acid substitution, SEQ ID NO: 48 (human); assay: ELISA, peptide on plate (10 ug/mL)
T18 sequence (peptide): EENMDDQWMQDEAAAGY

[19] = biological target: T19, Ala mutant having 3-amino acid substitution, SEQ ID NO: 49 (human); assay: ELISA, peptide on plate (10 ug/mL)
T19 sequence (peptide): EENMDDQWMQDEMEIAA

[20] = biological target: T20, TA0096 (peptide antigen corresponding to positions 340 to 356 of PAD4) (human); assay: ELISA, peptide on plate (10 ug/mL)
T20 sequence (peptide): EENMDDQWMQDEMEIGY

[21] = biological target: full-length recombinant mouse PAD4 (mouse) (UniProt Q9Z183); assay: ELISA, mouse PAD4 on plate, antibody 1 ug/mL
[22] = biological target: full-length recombinant mouse PAD4 (mouse) (UniProt Q9Z183); assay: ELISA, mouse PAD4 on plate, antibody 0.25 ug/mL
[23] = biological target: full-length recombinant mouse PAD4 (mouse) (UniProt Q9Z183); assay: ELISA, mouse PAD4 on plate, antibody 0.0625 ug/mL
[24] = biological target: full-length recombinant mouse PAD4 (mouse) (UniProt Q9Z183); assay: ELISA, mouse PAD4 on plate, antibody 0.015625 ug/mL
[25] = biological target: full-length recombinant mouse PAD4 (mouse) (UniProt Q9Z183); assay: ELISA, mouse PAD4 on plate, antibody 0.0002441 ug/mL
[26] = biological target: full-length recombinant mouse PAD4 (mouse) (UniProt Q9Z183); assay: ELISA, mouse PAD4 on plate, antibody 0.0009766 ug/mL
[27] = biological target: full-length recombinant mouse PAD4 (mouse) (UniProt Q9Z183); assay: ELISA, mouse PAD4 on plate, antibody 0.0039063 ug/mL
[28] = biological target: full-length recombinant mouse PAD4 (mouse) (UniProt Q9Z183); assay: ELISA, mouse PAD4 on plate, antibody 6.104E-05 ug/mL

Chain of full-length recombinant mouse PAD4 (mouse) (Q9Z183 whole entry): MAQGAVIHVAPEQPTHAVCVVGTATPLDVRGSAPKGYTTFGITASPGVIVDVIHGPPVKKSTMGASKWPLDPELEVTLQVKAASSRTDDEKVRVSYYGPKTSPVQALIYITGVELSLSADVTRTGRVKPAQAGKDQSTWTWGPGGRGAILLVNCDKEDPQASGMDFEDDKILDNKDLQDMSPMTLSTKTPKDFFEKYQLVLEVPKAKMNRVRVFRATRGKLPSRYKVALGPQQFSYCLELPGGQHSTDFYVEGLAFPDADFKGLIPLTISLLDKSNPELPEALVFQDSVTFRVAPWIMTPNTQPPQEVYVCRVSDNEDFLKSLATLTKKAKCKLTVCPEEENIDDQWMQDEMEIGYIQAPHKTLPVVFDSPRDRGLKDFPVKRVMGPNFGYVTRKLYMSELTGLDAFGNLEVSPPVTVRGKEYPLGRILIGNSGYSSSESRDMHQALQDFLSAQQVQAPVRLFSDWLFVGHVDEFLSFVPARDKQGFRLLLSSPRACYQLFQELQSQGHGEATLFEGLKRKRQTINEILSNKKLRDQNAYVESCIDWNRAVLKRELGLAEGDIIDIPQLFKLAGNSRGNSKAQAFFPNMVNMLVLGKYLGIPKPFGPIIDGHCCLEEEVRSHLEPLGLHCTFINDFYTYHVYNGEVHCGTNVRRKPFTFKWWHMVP

absorbance 490 nm/630 nm [1]: 1.96 OD
absorbance 490 nm/630 nm [2]: 1.94 OD
absorbance 490 nm/630 nm [3]: 1.91 OD
absorbance 490 nm/630 nm [4]: 1.93 OD
absorbance 490 nm/630 nm [5]: 1.85 OD
absorbance 490 nm/630 nm [6]: 1.98 OD
absorbance 490 nm/630 nm [7]: 1.92 OD
absorbance 490 nm/630 nm [8]: 1.88 OD
absorbance 490 nm/630 nm [9]: 1.91 OD
absorbance 490 nm/630 nm [10]: 1.88 OD
absorbance 490 nm/630 nm [11]: 1.89 OD
absorbance 490 nm/630 nm [12]: 1.85 OD
absorbance 490 nm/630 nm [13]: 1.86 OD
absorbance 490 nm/630 nm [14]: 1.92 OD
absorbance 490 nm/630 nm [15]: 1.9 OD
absorbance 490 nm/630 nm [16]: 0.178 OD
absorbance 490 nm/630 nm [17]: 1.86 OD
absorbance 490 nm/630 nm [18]: 1.88 OD
absorbance 490 nm/630 nm [19]: 1.86 OD
absorbance 490 nm/630 nm [20]: 1.88 OD
absorbance 490 nm/630 nm [21]: 2.26 OD
absorbance 490 nm/630 nm [22]: 2.25 OD
absorbance 490 nm/630 nm [23]: 2.22 OD
absorbance 490 nm/630 nm [24]: 2.25 OD
absorbance 490 nm/630 nm [25]: 0.205 OD
absorbance 490 nm/630 nm [26]: 0.555 OD
absorbance 490 nm/630 nm [27]: 1.42 OD
absorbance 490 nm/630 nm [28]: 0.122 OD
B1: G8 (antibody, IgG1, V domains shown)
VH: AVTLDESGGGLQTPGGALSLVCKASGFTFSTYAMGWMRQAPGKGLEYVAAIRNDGSWTGYGAAVKGRATILRDNGQSTVRLQLSNLRAEDTGTYYCAKYTGSSGGSIGAWGHGTEVIVS
VL: ASTQPSSVSANLGGTVEITCSGGNRNYYYGWYQQKSPGSAPVTLIYANDKRPSNIPSRFSGSKSGSTGTLTITGVQAEDEAVYFCGTADTGKYVFGAGTTLTVL

absorbance 490 nm/630 nm [1]: 1.9 OD
absorbance 490 nm/630 nm [2]: 1.95 OD
absorbance 490 nm/630 nm [3]: 1.9 OD
absorbance 490 nm/630 nm [4]: 1.95 OD
absorbance 490 nm/630 nm [5]: 0.462 OD
absorbance 490 nm/630 nm [6]: 1.87 OD
absorbance 490 nm/630 nm [7]: 1.87 OD
absorbance 490 nm/630 nm [8]: 1.86 OD
absorbance 490 nm/630 nm [9]: 1.99 OD
absorbance 490 nm/630 nm [10]: 1.81 OD
absorbance 490 nm/630 nm [11]: 1.86 OD
absorbance 490 nm/630 nm [12]: 1.83 OD
absorbance 490 nm/630 nm [13]: 1.85 OD
absorbance 490 nm/630 nm [14]: 1.87 OD
absorbance 490 nm/630 nm [15]: 1.9 OD
absorbance 490 nm/630 nm [17]: 1.67 OD
absorbance 490 nm/630 nm [18]: 1.87 OD
absorbance 490 nm/630 nm [19]: 1.86 OD
absorbance 490 nm/630 nm [20]: 1.82 OD
absorbance 490 nm/630 nm [21]: 2.3 OD
absorbance 490 nm/630 nm [22]: 2.31 OD
absorbance 490 nm/630 nm [23]: 2.29 OD
absorbance 490 nm/630 nm [24]: 2.26 OD
absorbance 490 nm/630 nm [25]: 0.224 OD
absorbance 490 nm/630 nm [26]: 0.55 OD
absorbance 490 nm/630 nm [27]: 1.41 OD
absorbance 490 nm/630 nm [28]: 0.103 OD
B2: H7 (antibody, IgG1, V domains shown)
VH: B1 VH
VL: ASTQPSSVSANPGGTVEITCSGGSGRYYYGWYQQKSPGSAPVTVIYSSTHRPSNIPSRFSGSKSGSTATLTITGVQAEDEAVYFCGTADSSSYVFGAGTTLTVL
